Paper PMC5516325, “Sequence-based identification of inositol monophosphatase-like histidinol-phosphate phosphatases (HisN) in Corynebacterium glutamicum, Actinobacteria, and beyond” (BMC Microbiology, 2017)
One block for each molecule: values may come before it.

How the values were obtained:
Assay type in all cases: biochemical, Corynebacterium glutamicum
Cg0911 [1] = test system: T1, Cg0911; test: phosphate release, malachite green; Hill equation fit; conditions: 5 mM MgSO4, 100 mM triethanolamine, pH 7.35, 30 °C
T1 construct: tag-free (C-terminal intein tag self-cleaved, IMPACT system), expressed in E. coli ER2566
Text: phosphate release, malachite green; Hill equation fit on Cg0911

Cg0911 [2] = test system: T1, Cg0911; test: phosphate release from HolP, malachite green; activation; conditions: activator (also reaction product); 500 μM HolP, 5 mM MgSO4, 1 M triethanolamine, pH 7.35, 30 °C; read-out: Half maximal stimulation
[3] = substrate: N[C@H](COP(=O)(O)O)Cc1c[nH]cn1; test: phosphate release, malachite green; Hill equation fit; conditions: 5 mM MgSO4, 100 mM triethanolamine, pH 7.35, 30 °C
Text: phosphate release, malachite green; Hill equation fit on HisN (HisNCg)

Molecule: N[C@H](COP(=O)(O)O)Cc1c[nH]cn1 [L-histidinol-phosphate]
Km (Cg0911 [1]): 638 ± 70.5 µM

EC50 (Cg0911 [2]): 860 ± 60 µM
Molecule: N[C@H](CO)Cc1c[nH]cn1 [L-histidinol]

B1: HisN (HisNCg) (Corynebacterium glutamicum ATCC 13032) (protein)
chain: MSKYADDLALALELAELADSITLDRFEASDLEVSSKPDMTPVSDADLATEEALREKIATARPADSILGEEFGGDVEFSGRQWIIDPIDGTKNYVRGVPVWATLIALLDNGKPVAGVISAPALARRWWASEGAGAWRTFNGSSPRKLSVSQVSKLDDASLSFSSLSGWAERDLRDQFVSLTDTTWRLRGYGDFFSYCLVAEGAVDIAAEPEVSLWDLAPLSILVTEAGGKFTSLAGVDGPHGGDAVATNGILHDETLDRLK
notes: tag-free (C-terminal intein tag self-cleaved, IMPACT system, NEB), expressed in E. coli ER2566
Km [3]: 23.6 ± 1.4 µM
kcat [3]: 1.04 ± 0.06 s⁻¹
kcat/Km [3]: 44100 M⁻¹ s⁻¹
